Assay [1] concerns the target T1, Full length IDOL (1–445) (UniProt Q8WY64 1-445, NT-647-NHS dye (only the labelled copy in the MST assays)).
T1 construct: IDOL (inducible degrader of LDLR, MYLIP), E3 ubiquitin ligase, residues 1-445; The His tag is TEV cleavable, but SPR captures the protein by it and the MST methods name 6× His IDOL; In the homodimerization MST, unlabelled IDOL was titrated into dye-labelled IDOL; also called inducible degrader of LDLR; 6× His IDOL; not shown: His6, N-terminal, kept
The experiment in a line: MST; Monolith NT.115; 6× His IDOL labelled with NT-647-NHS dye at 50 nM, peptides titrated; 10 mM HEPES, 300 mM NaCl, 1 mM TCEP, 0.05% TWEEN-20, pH 8.0, 5% DMSO. The settings on record: both partners purified.

The target in assay [2] is T1, Full length IDOL (1–445). The experiment in a line: cell-based or functional assay.

B1: RINGPep2 (cyclo-CF-Cha-LYT) (peptide)
chain: CFXLYT
HELM: PEPTIDE1{C.F.[Cha].L.Y.T}$PEPTIDE1,PEPTIDE1,1:R1-6:R2$$$V2.0
SMILES: CC(C)C[C@@H]1NC(=O)[C@H](CC2CCCCC2)NC(=O)[C@H](Cc2ccccc2)NC(=O)[C@H](CS)NC(=O)[C@H]([C@@H](C)O)NC(=O)[C@H](Cc2ccc(O)cc2)NC1=O
Regarding B1, the dissociation constant (Kd) (as a rule, the concentration at which binding is half-saturated) in assay [1] amounted to 4.6 µM. Further, the “EC50 of Tat-RINGPep2 (0–35 μM) on LDLR protein levels in HepG2 cells; blocks IDOL homodimerization” value in assay [2] fell in the range of 15 to 20 µM.

For the origin of these results see PMC6050537, “Inhibition of low-density lipoprotein receptor degradation with a cyclic peptide that disrupts the homodimerization of IDOL E3 ubiquitin ligase† †Electronic supplementary information (ESI) available. See DOI: 10.1039/c8sc01186a” (Chemical Science, 2018).
